From publication PMC6300308, “Linear Eyring Plots Conceal a Change in the Rate-Limiting Step in an Enzyme Reaction” (Biochemistry, 2018)
Read-outs that look alike come from different tables or passages of the source.

B1: PaHBDH (Psychrobacter arcticus 273-4) (protein)
chain: MATQLQQDLTGKVALVTGAASGIGRDIAETYAKAGAAVGIADINLEAAQKTVDAIEAAGGRALAIAMDVTSEAAVNDGVQRLVDTFGGIDILVSNAGIQIIDPIHKMAFEDWKKMLAIHLDGAFLTTKAAIQHMYKDDKGGTVIYMGSVHSHEASLFKAPYVTAKHGLLGLCRVLAKEGAVHNVRSHVICPGFVKTPLVEKQIPQQAAEKGISEESVVNDIMLVNTVDKEFTTVDDIAQLALFLAAFPTNVFTGQSIVASHGWFMN
notes: recombinant purified enzyme; cloning details only in supplement

Key:
PaHBDH = biological target: T1, PaHBDH (Psychrobacter arcticus, UniProt Q4FRT2); test: stopped-flow single-turnover kinetics, NADH limiting; type: biochemical; conditions: acetoacetate or 3-oxovalerate as co-substrate; 283 and 298 K
T1 construct: gene Psyc_1428; recombinant purified enzyme; cloning details only in supplement
T1 sequence (Q4FRT2 1-266): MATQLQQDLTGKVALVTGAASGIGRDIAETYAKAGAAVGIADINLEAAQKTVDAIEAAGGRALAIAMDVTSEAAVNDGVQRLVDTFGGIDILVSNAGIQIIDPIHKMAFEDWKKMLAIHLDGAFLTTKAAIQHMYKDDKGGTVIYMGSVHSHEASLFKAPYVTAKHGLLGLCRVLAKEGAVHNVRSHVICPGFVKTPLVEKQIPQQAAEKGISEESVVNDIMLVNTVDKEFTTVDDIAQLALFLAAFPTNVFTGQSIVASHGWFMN

AbHBDH = biological target: T2, AbHBDH (Acinetobacter baumannii, UniProt A0A1E3M3N6); test: as above; type: biochemical; conditions: acetoacetate or 3-oxovalerate as co-substrate; 283 and 298 K
T2 construct: gene AUO97_16470; recombinant purified enzyme; cloning details only in supplement
T2 sequence (A0A1E3M3N6 1-261): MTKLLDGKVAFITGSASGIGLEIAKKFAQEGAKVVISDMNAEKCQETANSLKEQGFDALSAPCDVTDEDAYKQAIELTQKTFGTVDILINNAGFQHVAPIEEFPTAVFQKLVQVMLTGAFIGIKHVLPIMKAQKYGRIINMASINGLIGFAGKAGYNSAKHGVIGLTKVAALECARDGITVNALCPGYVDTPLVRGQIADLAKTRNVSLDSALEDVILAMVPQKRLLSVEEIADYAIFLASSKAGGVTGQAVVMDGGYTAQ

[1] = substrate: NC(=O)C1=CN([C@@H]2O[C@H](COP(=O)(O)OP(=O)(O)OC[C@H]3O[C@@H](n4cnc5c(N)ncnc54)[C@H](O)[C@@H]3O)[C@@H](O)[C@H]2O)C=CC1; test: purified protein, by the assay type; set-up: steady-state saturation kinetics of NADH-dependent reduction by purified recombinant HBDH, 298 K
Description: (§1) We measured saturation curves for AbHBDH and PaHBDH at various temperatures (283–330 K for AbHBDH and 283–318 K for PaHBDH) (Figure S2 and Tables S1–S4). […] Apparent steady-state catalytic constants (kcat) were used to construct Eyring plots for each enzyme (Figure 1). […] Accordingly, a significant negative ΔCp^⧧ is predicted for the psychrophilic enzyme but not for the mesophilic one (Table S6).

[2] = substrate: NC(=O)C1=CN([C@@H]2O[C@H](COP(=O)(O)OP(=O)(O)OC[C@H]3O[C@@H](n4cnc5c(N)ncnc54)[C@H](O)[C@@H]3O)[C@@H](O)[C@H]2O)C=CC1; test: purified protein, by the assay type; set-up: steady-state saturation kinetics of NADH-dependent reduction by purified recombinant HBDH, 298 K; remark: listed apart in the source
Description: as §1

[3] = substrate: CC(=O)CC(=O)O; test: steady-state saturation curves; type: biochemical, Psychrobacter arcticus; conditions: co-substrate NADH; 283-318 K; 45.0 °C
Description: (§2) steady-state saturation curves on PaHBDH | We measured saturation curves for AbHBDH and PaHBDH at various temperatures

[4] = substrate: CCC(=O)CC(=O)O; test: steady-state saturation curves; type: biochemical, Psychrobacter arcticus; conditions: co-substrate NADH; 283-318 K; 45.0 °C
Description: as §2

Molecule	stopped-flow single-turnover kinetics, NADH limiting (PaHBDH)	stopped-flow single-turnover kinetics, NADH limiting (AbHBDH)	Km [1] [µM]	kcat [1] [s⁻¹]	kcat/Km [1] [M⁻¹ s⁻¹]	Km [2] [µM]	kcat [2] [s⁻¹]	kcat/Km [2] [M⁻¹ s⁻¹]	Km [3] [µM]	kcat [3] [s⁻¹]	Km [4] [µM]	kcat [4] [s⁻¹]
NC(=O)C1=CN([C@@H]2O[C@H](COP(=O)(O)OP(=O)(O)OC[C@H]3O[C@@H](n4cnc5c(N)ncnc54)[C@H](O)[C@@H]3O)[C@@H](O)[C@H]2O)C=CC1 [NADH]	demonstrating NADH is saturated with PaHBDH and kSTO is unimolecular	demonstrating NADH is saturated with AbHBDH and kSTO is unimolecular	–	–	–	–	–	–	–	–	–	–
B1	–	–	3.4 ± 0.4	5.9 ± 0.1	1.7e+06 ± 800000	30 ± 10	86 ± 4	2.7e+06 ± 700000	110 ± 10	86 ± 4	36 ± 2	5.9 ± 0.1
